Assay results from patent US5352603A, “Highly alkaline proteases” (Kali-Chemie AG, priority 1989, dated 1994).

What was measured:
[1] = Washing test in Linitest with IEC test detergent with perborate (Example 19); conditions: pH 10.5, 30 minutes at 45° C.
Procedure: (§1) The washing tests were carried out in a Linitest with EMPA 117 (11 cm×11 cm; polyester/cotton blended fabric, soiled with milk, blood and permanent ink) as the test fabric (purchased from the Eidgenoessische Material pruefungsanstalt, Sankt Gallen, Switzerland)- Washing was carried out with 6 g/l IEC test detergent with perborate, type 1 (Lever Sunlicht GmbH, Mannheim; composition: 6.4% by weight linear alkylsulfonates, 2.3% by weight ethoxylated fatty alcohols with 14% ethoxy groups, 2.8% by weight sodium soap, 35% by weight sodium tripolyphosphate, 6% by weight sodium silicate, 1.5% by weight magnesium silicate, 1% by weight carboxy/methylcellulose, 0.2% by weight ethylenediaminetetraacetic acid (EDTA), 0.2% by weight optical brightener (stilbene type), 16.8% by weight sodium sulfate, and 7.8% by weight water as a spray-dried powder without bleach activator plus 20% by weight sodium perborate tetrahydrate) in water having a hardness of 15° on the German hardness scale. The pH of the wash liquor was pH 10.5. The washing time was 30 minutes at 45° C., and in each case 20 U of protease (prepared as described in Example 18) were employed per 100 ml. After the washing process was complete, the pieces of fabric were rinsed three times with tap water, dried and subsequently ironed. The reflection of the pieces of test cloth was determined four times on each side.

[2] = Washing test in Linitest with European-formulation detergent (Example 20); conditions: analogous to Example 19
Procedure: as §1, with “side. […]” for “side.”

B1: Initial protease: non-mutated highly alkaline protease from Bacillus alcalophilus HA1 (DSM 5466), amino-acid sequence of FIG. 1 (SEQ. ID. NO. 2) (protein)
chain: MKKPLGKIVASTALLISVAFSSSIASAAEEAKEKYLIGFNEQEAVSEFVEQVEANDEVAILSEEEEVEIELLHEFETIPVLSVELSPEDVDALELDPAISYIEEDAEVTTMAQSVPWGISRVQAPAAHNRGLTGSGVKVAVLDTGISTHPDLNIRGGASFVPGEPSTQDGNGHGTHVAGTIAALNNSIGVLGVAPSAELYAVKVLGASGSGSVSSIAQGLEWAGNNGMHVANLSLGSPSPSATLEQAVNSATSRGVLVVAASGNSGAGSISYPARYANAMAVGATDQNNNRASFSQYGAGLDIVAPGVNVQSTYPGSTYASLNGTSMATPHVAGAAALVKQKNPSWSNV
With B1 the Reflection ([1]; 6 g/l IEC test detergent with perborate, type 1, 20 U of protease per 100 ml, averages of 16 washing tests) was 71.1%, the “Relative Reflection” value ([1]; relative to initial protease = 100%, IEC test detergent with perborate, 20 U protease per 100 ml) was 100% and the Reflection ([2]; detergent in a formulation suitable for Europe (anionic and non-ionic surfactant, sodium tripolyphosphate, sodium perborate)) was 65.6%. The “Relative Reflection” value ([2]; relative to initial protease = 100%, detergent in a formulation suitable for Europe) was 100%.
